Data on 1 molecule can be found in patent publication US20240034787A1 (TOKYO UNIVERSITY OF PHARMACY AND LIFE SCIENCES, published 2024).

The assay addresses T1, LRP1 of rat retinal ganglion cells (rat, UniProt G3V928 20-4545).
T1 construct: Endogenous LRP1 in the rat retina (ganglion cell layer); also called LRP1 on retinal ganglion cells
In words: fluorescent immunostaining of rat retina sections after intravitreal administration (colocalisation in the ganglion cell layer). As for the experimental part:
Frozen specimen preparation and immunofluorescence staining of rat eyeballs were performed in the following procedures. [0212] (1) Thinly sliced sections were prepared in the same manner as in the HE staining method. [0213] (2) 15% blocking buffer (in PBS, goat 15% serum, 0.05% Tween 20) was added and reacted at room temperature for one hour. [0214] (3) Washing was performed with PBS for 15 minutes. [0215] (4) A Primary antibody ([…] in 1% blocking buffer) was added and incubated overnight at 4° C. [0216] (5) Washing was performed with PBS for 15 minutes. [0217] (6) A secondary antibody (Alexa Fluor 488-bound goat anti-rabbit IgG (dilution 1:500, Invitrogen)) and Alexa Fluor 594-bound goat anti-human IgG (dilution 1:500, Invitrogen)) were added and reacted at room temperature for one hour. [0218] (7) Washing was performed with PBS containing Heochst33342 (1:2000 dilution) for one minute. [0219] (8) After encapsulation, observation was performed with a fluorescence microscope.
In the above experiment, it was observed by fluorescent immunostaining whether C2-D11 IgG binds to LRP1 of retinal ganglion cells after being administered into the vitreous body of rats. […] On the other hand, it was shown that the anti-OVA antibody was not colocalized.

T1 sequence (G3V928 20-4545 limits assumed): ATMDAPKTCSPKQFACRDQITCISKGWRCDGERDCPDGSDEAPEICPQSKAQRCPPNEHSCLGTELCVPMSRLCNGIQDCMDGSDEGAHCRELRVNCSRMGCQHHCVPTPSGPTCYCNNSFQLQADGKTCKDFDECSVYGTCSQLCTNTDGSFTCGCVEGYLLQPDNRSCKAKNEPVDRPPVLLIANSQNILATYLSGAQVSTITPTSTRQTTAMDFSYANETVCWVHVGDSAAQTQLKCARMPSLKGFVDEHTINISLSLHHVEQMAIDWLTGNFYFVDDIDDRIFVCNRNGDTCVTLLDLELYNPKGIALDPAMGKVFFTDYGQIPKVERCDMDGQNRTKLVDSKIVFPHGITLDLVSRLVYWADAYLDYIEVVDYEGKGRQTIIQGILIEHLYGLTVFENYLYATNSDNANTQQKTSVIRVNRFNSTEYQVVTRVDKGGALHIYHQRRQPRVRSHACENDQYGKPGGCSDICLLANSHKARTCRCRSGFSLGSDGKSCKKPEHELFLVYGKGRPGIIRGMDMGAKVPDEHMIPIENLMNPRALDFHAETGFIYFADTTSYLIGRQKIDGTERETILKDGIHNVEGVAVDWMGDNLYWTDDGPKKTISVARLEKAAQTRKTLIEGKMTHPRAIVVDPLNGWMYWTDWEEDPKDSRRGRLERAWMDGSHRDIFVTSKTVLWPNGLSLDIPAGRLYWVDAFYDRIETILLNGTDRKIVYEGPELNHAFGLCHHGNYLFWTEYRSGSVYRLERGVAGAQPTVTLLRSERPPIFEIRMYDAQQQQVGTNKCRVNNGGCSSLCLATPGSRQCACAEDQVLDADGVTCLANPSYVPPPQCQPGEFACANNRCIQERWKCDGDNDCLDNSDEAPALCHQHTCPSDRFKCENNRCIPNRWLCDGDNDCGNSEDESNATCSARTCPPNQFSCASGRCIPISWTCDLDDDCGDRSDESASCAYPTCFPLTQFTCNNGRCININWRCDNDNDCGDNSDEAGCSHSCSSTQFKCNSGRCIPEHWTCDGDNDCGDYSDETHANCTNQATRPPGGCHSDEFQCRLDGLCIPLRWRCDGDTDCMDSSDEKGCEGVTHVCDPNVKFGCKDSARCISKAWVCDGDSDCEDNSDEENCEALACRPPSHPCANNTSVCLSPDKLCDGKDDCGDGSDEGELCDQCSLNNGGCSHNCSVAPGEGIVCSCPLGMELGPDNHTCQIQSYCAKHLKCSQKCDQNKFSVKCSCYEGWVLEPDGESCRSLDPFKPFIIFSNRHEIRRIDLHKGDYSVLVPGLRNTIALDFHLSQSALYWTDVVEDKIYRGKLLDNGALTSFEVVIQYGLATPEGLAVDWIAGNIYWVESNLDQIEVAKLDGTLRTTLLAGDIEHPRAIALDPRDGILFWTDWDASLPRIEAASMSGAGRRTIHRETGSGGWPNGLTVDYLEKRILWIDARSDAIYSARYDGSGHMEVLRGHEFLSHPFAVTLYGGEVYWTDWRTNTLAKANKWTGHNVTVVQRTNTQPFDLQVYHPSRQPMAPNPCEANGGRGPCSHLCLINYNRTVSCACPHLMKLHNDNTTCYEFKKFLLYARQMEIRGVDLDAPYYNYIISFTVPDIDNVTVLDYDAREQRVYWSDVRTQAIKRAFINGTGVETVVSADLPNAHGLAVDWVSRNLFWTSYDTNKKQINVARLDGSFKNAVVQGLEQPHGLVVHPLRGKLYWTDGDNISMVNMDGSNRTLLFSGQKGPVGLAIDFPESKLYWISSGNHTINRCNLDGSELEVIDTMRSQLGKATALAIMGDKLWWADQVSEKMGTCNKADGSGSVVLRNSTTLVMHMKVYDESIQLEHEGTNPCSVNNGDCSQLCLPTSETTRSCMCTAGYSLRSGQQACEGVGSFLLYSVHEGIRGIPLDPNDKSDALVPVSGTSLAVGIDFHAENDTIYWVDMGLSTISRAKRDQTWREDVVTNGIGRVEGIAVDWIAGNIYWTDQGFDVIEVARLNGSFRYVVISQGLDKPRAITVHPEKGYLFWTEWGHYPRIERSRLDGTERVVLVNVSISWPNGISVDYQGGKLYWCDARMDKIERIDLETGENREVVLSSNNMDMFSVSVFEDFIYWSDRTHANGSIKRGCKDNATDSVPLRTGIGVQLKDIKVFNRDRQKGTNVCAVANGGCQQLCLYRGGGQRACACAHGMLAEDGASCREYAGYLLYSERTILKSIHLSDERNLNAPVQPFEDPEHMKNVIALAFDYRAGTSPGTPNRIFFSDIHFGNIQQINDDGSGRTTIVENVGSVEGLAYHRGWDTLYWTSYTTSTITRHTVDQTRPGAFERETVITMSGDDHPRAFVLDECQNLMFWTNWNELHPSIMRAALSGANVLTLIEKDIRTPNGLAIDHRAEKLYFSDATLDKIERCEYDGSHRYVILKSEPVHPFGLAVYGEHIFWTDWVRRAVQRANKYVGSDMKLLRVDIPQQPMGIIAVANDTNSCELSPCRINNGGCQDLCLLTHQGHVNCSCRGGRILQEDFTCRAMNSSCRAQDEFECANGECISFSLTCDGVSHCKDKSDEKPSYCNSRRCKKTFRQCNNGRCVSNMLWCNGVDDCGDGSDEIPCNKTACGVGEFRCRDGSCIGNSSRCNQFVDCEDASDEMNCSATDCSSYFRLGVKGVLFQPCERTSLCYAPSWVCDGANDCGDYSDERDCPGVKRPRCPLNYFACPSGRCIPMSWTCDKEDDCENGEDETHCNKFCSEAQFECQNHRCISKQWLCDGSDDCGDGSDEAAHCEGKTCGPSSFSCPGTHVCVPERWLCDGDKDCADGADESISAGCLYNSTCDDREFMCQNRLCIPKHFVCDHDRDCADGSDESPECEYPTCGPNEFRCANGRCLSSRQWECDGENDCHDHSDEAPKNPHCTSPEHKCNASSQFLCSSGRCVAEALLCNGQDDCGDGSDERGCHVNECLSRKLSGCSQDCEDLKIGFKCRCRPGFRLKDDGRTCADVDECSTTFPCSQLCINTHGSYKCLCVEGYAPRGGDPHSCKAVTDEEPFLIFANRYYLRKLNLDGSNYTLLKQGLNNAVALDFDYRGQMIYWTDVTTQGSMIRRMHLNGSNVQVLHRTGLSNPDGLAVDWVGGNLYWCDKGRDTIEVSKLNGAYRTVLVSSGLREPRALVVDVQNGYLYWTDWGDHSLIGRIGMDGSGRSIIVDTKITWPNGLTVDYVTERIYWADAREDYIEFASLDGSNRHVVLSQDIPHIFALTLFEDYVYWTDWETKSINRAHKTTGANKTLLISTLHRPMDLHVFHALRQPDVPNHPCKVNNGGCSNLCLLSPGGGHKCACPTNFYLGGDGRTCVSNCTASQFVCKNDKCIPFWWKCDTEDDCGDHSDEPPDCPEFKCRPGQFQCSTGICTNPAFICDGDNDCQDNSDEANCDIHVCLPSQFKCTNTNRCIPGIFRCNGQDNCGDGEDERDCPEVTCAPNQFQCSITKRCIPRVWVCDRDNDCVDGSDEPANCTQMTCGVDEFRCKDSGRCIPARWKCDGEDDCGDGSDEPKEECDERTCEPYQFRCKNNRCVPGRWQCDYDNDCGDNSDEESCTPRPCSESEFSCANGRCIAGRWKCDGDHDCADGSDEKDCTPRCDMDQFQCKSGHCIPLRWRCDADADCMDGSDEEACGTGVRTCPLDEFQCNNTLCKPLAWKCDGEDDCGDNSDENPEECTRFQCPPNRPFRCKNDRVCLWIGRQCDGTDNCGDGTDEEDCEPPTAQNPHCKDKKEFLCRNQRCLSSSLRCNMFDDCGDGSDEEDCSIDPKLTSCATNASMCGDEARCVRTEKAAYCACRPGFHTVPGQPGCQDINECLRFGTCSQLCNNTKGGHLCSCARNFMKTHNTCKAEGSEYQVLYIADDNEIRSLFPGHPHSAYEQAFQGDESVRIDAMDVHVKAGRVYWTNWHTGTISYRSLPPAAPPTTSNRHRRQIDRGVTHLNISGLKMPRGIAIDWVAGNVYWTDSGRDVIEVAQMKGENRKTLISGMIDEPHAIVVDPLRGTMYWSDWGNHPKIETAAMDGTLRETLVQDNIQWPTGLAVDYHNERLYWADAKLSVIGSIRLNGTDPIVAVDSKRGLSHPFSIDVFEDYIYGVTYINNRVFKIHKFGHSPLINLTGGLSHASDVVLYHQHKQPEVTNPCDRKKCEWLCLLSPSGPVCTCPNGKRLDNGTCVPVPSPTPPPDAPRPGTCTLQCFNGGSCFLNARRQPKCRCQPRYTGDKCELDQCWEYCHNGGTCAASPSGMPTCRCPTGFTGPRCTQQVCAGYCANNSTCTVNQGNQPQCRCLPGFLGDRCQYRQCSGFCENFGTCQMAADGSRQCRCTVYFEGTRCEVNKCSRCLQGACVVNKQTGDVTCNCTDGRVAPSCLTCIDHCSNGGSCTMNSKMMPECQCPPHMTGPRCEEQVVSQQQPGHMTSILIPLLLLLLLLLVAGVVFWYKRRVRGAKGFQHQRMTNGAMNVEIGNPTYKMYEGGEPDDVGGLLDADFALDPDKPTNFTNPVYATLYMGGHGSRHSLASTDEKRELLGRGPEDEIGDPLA

B1: anti-LRP1 human IgG1 antibody prepared from C2_D11 (antibody, V domains shown)
VH: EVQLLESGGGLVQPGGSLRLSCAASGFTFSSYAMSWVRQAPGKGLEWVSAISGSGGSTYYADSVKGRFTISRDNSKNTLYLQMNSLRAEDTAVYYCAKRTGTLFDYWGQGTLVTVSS
VL: SSELTQDPAVSVALGQTVRITCQGDSLRSYYASWYQQKPGQAPVLVIYGKNNRPSGIPDRFSGSSSGNTASLTITGAQAEDEADYYCNSSQAQRNAVVFGGGTKLTVLG
notes: VH and VL of C2_D11 were put into expression vectors with a human IgG1 Fc region and expressed in HEK-293; also called C2-D11 IgG; human C2-D11 IgG
Turning to B1, the binding result was “binds”.
